# Test results: publication PMC5037460, “The structure of a furin-antibody complex explains non-competitive inhibition by steric exclusion of substrate conformers” (Scientific Reports, 2016)
# T1: dec-RVKR-CMK-inhibited human furin (Homo sapiens, covalently inhibited by decanoyl-RVKR-chloromethylketone (dec-RVKR-CMK))
# T1 construct: furin, human; also called furin:RVKR-CMK; source: purified, complex with Nb14 purified by GPC
# T1 chain: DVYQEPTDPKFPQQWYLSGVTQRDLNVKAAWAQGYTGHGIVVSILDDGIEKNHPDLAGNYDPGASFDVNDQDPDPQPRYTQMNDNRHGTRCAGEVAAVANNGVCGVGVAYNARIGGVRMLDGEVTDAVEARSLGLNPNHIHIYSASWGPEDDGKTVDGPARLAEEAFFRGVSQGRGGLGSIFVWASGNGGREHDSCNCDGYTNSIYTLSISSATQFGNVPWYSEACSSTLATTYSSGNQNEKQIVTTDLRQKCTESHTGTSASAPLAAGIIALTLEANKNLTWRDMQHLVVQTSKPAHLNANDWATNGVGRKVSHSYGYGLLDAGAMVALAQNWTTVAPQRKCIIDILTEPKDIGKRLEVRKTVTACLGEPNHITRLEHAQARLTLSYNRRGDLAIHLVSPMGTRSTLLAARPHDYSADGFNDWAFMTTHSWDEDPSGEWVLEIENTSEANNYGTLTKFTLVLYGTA
# T2: human furin, wild type (Homo sapiens)
# T2 construct: furin, human; also called Furin^WT; source: purified
# T2 chain: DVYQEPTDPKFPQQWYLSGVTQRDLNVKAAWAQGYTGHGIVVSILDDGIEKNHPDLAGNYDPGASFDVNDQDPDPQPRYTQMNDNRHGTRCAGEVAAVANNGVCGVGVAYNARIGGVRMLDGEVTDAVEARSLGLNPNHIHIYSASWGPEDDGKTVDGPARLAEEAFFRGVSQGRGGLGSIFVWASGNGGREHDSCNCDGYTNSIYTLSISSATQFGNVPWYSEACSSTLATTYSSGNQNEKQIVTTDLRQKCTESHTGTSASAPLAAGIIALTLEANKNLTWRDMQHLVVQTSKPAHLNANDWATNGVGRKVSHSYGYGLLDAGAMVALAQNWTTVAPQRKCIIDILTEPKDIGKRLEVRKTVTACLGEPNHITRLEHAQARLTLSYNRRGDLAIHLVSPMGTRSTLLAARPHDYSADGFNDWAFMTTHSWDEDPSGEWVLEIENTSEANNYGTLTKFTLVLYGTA
# Key:
# [1] = target: T1, dec-RVKR-CMK-inhibited human furin; assay: crystal structure; furin:RVKR-CMK:Nb14 complex (~9 mg/ml in 10 mM Hepes, pH 7.5, 100 mM NaCl, 2 mM CaCl2) crystallised in 0.1 M sodium acetate, pH 5.6, 16-18% PEG 3350; two copies of the complex in the asymmetric unit; conditions: both partners purified
# human furin, wild type = target: T2, human furin, wild type; assay: SEC; analytical gel permeation chromatography, Superdex 200 5/150 GL, 10 mM Hepes, pH 7.5, 100 mM NaCl, 1 mM CaCl2; proteins premixed at equimolar ratio, ~23 μM each; 0.2 ml/min; peak fractions by SDS-PAGE; conditions: both partners purified
binder,measurement,setting,value
"inhibitory camelid antibody Nb14 (VHH, they are in the deposited structures PDB 5JMO (complex with furin) and PDB 5JMR (free Nb14); also called nanobody Nb14; source: purification in Supplementary Information) VHH: QVQLQESGGGLVQPGGSLTLSCAASGFTFSSYSMYWVRQAPGKGLEWVSSINRVGSNTDYADSVKGRFTISRDNAKNTLYLQMNSLKSEDTALYYCAVGMYAAPPWRGQGTQVTVSS",binding result,[1],binds
same,binding result,"human furin, wild type",binds
